Results as given in patent US20030186329A1, “Use of substrate subtraction libraries to distinguish enzyme specificities” (The Scripps Research Institute, priority 1998, published 2003).

Substrate: CC(C)[C@H](NC(=O)[C@H](CO)NC(=O)CNC(=O)CNC(=O)[C@@H](NC(=O)[C@@H](NC(=O)[C@H](CCCNC(=N)N)NC(=O)CNC(=O)[C@@H]1CCCN1C(=O)[C@H](CO)NC(=O)[C@H](CCCCN)NC(=O)[C@@H](N)CCCCN)C(C)C)C(C)C)C(=O)N[C@@H](C)C(=O)N[C@@H](Cc1c[nH]cn1)C(=O)O
Assay: Kinetics of cleavage of synthetic peptides by t-PA (HPLC, Eadie-Hofstee analysis)
Assay type: biochemical
Conditions: other: hydrolysis of peptide by t-PA
Method: Concentrations of functional t-PA and u-PA were measured by active site titration with 4-methylumbelliferyl p-guanidinobenzoate (Jameson, G., et al., (1973) Biochem. J. 131, 107-117) using a Perkin-Elmer LS 50B Luminescence Fluorometer as previously described (Madison, E. L., et al., (1995) J. Biol. Chem. 270: 7558-7562). In addition, the enzymes were titrated with a standard PAI-1 preparation that had been previously titrated against a trypsin primary standard. Total enzyme concentrations were measured by ELISA.
Individual phage stocks were prepared and digested with no enzyme, t-PA, u-PA, or u-PA in the presence of 1 mM amiloride, a specific inhibitor of u-PA. Kinetic-data were obtained by incubating various concentrations of peptide with a constant enzyme concentration to achieve between 5 and 20% cleavage of the peptide in each reaction. For assays with u-PA, enzyme concentration was either 815 or 635 nM. For assays with t-PA enzyme concentration was 700 nM. […] The buffer used in these assays has been described (Madison, E. L., et al., 1995). Reactions were stopped by addition of triflouroacetic acid to 0.33% or by freezing on dry ice. Cleavage of the 13 and 14 residue peptides was monitored by reverse phase HPLC as described (Madison, E. L., et al., 1995). The 4-6 residue peptides were acylated at their amino termini and amidated at their carboxyl termini. Cleavage of the 4-6 residue peptides was monitored by hydrophilic interaction HPLC chromatography (HILIC) (Alpert, A. J. (1990) J. Chromatog. 499, 177-196.) using a polyhydroxyaspartamine column from PolyLC (Columbia, Md.). Buffer A was 50 mM triethylamine phosphate in 10% acetonitrile and buffer B was 10 mM triethylamine phosphate in 80% acetonitrile. Peptides were eluted by a gradient which was varied from 100% Buffer B to 100% Buffer A during a 13 minute interval. The percent of cleaved peptide was calculated by dividing the area under the product peaks by the total area under substrate and product peaks. […] Errors were determined as described (Taylor, J. R., 1982) An introduction to error analysis. […]

B1: t-PA (Homo sapiens) (protein)
chain: SYQVICRDEKTQMIYQQHQSWLRPVLRSNRVEYCWCNSGRAQCHSVPVKSCSEPRCFNGGTCQQALYFSDFVCQCPEGFAGKCCEIDTRATCYEDQGISYRGTWSTAESGAECTNWNSSALAQKPYSGRRPDAIRLGLGNHNYCRNPDRDSKPWCYVFKAGKYSSEFCSTPACSEGNSDCYFGNGSAYRGTHSLTESGASCLPWNSMILIGKVYTAQNPSAQALGLGKHNYCRNPDGDAKPWCHVLKNRRLTWEYCDVPSCSTCGLRQYSQPQFRIKGGLFADIASHPWQAAIFAKHRRSPGERFLCGGILISSCWILSAAHCFQERFPPHHLTVILGRTYRVVPGEEEQKFEVEKYIVHKEFDDDTYDNDIALLQLKSDSSRCAQESSVVRTVCLPPADLQLPDWTECELSGYGKHEALSPFYSERLKEAHVRLYPSSRCTSQHLLNRTVTDNMLCAGDTRSGGPQANLHDACQGDSGGPLVCLNDGRMTLVGIISWGLGCGQKDVPGVYTKVTNYLDWIRDNMRP
  Km: 15 mM
  kcat: 0.0043 s⁻¹
  kcat/Km: 0.29 M⁻¹ s⁻¹
